The data set has as its system Escherichia coli TOP10. Briefly: shrunken log2 fold change of peptide-encoding DNA abundance (4.5 h post-induction vs induction); higher = less antimicrobial activity (less host growth inhibition). The settings on record: time post-induction: 4.5 h; library: site-saturation at positions 5, 18, 19, 20.
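Further: peptides expressed intracellularly from a pBAD plasmid library in pooled LB shake-flask culture, induced with 0.3% L-arabinose, DNA abundance read by NGS, three biological replicates, DESeq2 with apeglm shrinkage.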

On to RRIRDRPPRLPRPRPRPTSCPRP, for which the “shrunken log2 fold change” value came to 0.037. For RRIRVRPPRLPRPRPRPKTHPRP, the “shrunken log2 fold change” value is -0.0994. In the case of RRIRGRPPRLPRPRPRPKFTPRP, the “shrunken log2 fold change” value worked out at 0.12.

As for RRIRDRPPRLPRPRPRPMVPPRP, the “shrunken log2 fold change” value came to 0.0555. As to RRIRCRPPRLPRPRPRPWGIPRP, the “shrunken log2 fold change” value was -0.59. Consider RRIRKRPPRLPRPRPRPRYKPRP, for which the “shrunken log2 fold change” value came out at 0.15. As for RRIRRRPPRLPRPRPRPTYEPRP, the figure is -0.21. As for RRIRGRPPRLPRPRPRPCWNPRP, the figure is 0.183; as for RRIRYRPPRLPRPRPRPELIPRP, -0.363.

Regarding RRIRARPPRLPRPRPRPRLLPRP, the “shrunken log2 fold change” value turned out to be 0.526. On to RRIRTRPPRLPRPRPRPQPTPRP, for which the “shrunken log2 fold change” value worked out at 0.197. As to RRIRARPPRLPRPRPRPEMMPRP, the “shrunken log2 fold change” value was 1.12. Next, RRIRVRPPRLPRPRPRPIKQPRP: 0.0119; RRIRFRPPRLPRPRPRPLWIPRP: -0.624.

Take RRIRRRPPRLPRPRPRPNLIPRP: the “shrunken log2 fold change” value is -0.221. Regarding RRIRGRPPRLPRPRPRPFLLPRP, the “shrunken log2 fold change” value was 0.206. Next, RRIRTRPPRLPRPRPRPHSNPRP: -0.489; RRIRERPPRLPRPRPRPRFQPRP: 0.2.

Regarding RRIRSRPPRLPRPRPRPHINPRP, the “shrunken log2 fold change” value was -0.607. As for RRIRTRPPRLPRPRPRPSTIPRP, the “shrunken log2 fold change” value was -0.386. For RRIRMRPPRLPRPRPRPVRGPRP, the “shrunken log2 fold change” value came to 1.18.

Regarding RRIRIRPPRLPRPRPRPQAKPRP, the “shrunken log2 fold change” value is 0.2.

For the sequence RRIRDRPPRLPRPRPRPLPHPRP, the “shrunken log2 fold change” value was -0.146. Consider RRIRRRPPRLPRPRPRPDMEPRP, for which the “shrunken log2 fold change” value was -0.0393. With RRIRTRPPRLPRPRPRPFPGPRP, the “shrunken log2 fold change” value was -0.21. As to RRIRNRPPRLPRPRPRPGFYPRP, the “shrunken log2 fold change” value amounted to 0.00223. Next, RRIRYRPPRLPRPRPRPNDFPRP: -0.0506; RRIRVRPPRLPRPRPRPFRFPRP: 0.0201; RRIRKRPPRLPRPRPRPKDAPRP: -0.0585. RRIRFRPPRLPRPRPRPFMYPRP: the “shrunken log2 fold change” value was -0.742. Take RRIRTRPPRLPRPRPRPPFIPRP: the “shrunken log2 fold change” value is -0.177. On to RRIRSRPPRLPRPRPRPADAPRP, for which the “shrunken log2 fold change” value amounted to 0.0403. As to RRIRPRPPRLPRPRPRPKINPRP, the “shrunken log2 fold change” value is -0.32. As to RRIRHRPPRLPRPRPRPIWGPRP, the “shrunken log2 fold change” value stood at 0.226. Take RRIRRRPPRLPRPRPRPMPGPRP: the “shrunken log2 fold change” value is 0.243. As to RRIRKRPPRLPRPRPRPNETPRP, the “shrunken log2 fold change” value came out at 0.118.

Regarding RRIRYRPPRLPRPRPRPARHPRP, the “shrunken log2 fold change” value stood at 0.0712. As for RRIRYRPPRLPRPRPRPWKPPRP, the “shrunken log2 fold change” value was -0.2. For the sequence RRIRERPPRLPRPRPRPPQLPRP, the “shrunken log2 fold change” value was found to be 0.194.

For RRIRARPPRLPRPRPRPKYFPRP, the “shrunken log2 fold change” value came out at 0.0918. For RRIRGRPPRLPRPRPRPQANPRP, the “shrunken log2 fold change” value came out at 0.111. Next, RRIRSRPPRLPRPRPRPNFTPRP: -0.0286; RRIRFRPPRLPRPRPRPILMPRP: -0.0682. In the case of RRIRSRPPRLPRPRPRPASFPRP, the “shrunken log2 fold change” value was -0.226. Turning to RRIRLRPPRLPRPRPRPTSNPRP, the “shrunken log2 fold change” value was -0.576. Take RRIRWRPPRLPRPRPRPYNFPRP: the “shrunken log2 fold change” value was -0.58. For RRIRARPPRLPRPRPRPTDVPRP, the “shrunken log2 fold change” value was 0.141. As for RRIRIRPPRLPRPRPRPIVFPRP, the “shrunken log2 fold change” value is -0.144. Take RRIRMRPPRLPRPRPRPWGYPRP: the “shrunken log2 fold change” value is 0.101. As for RRIRYRPPRLPRPRPRPYKIPRP, the figure is -0.573; as for RRIRSRPPRLPRPRPRPRGCPRP, 0.383.

Turning to RRIRTRPPRLPRPRPRPQHIPRP, the “shrunken log2 fold change” value is -0.554. With RRIRMRPPRLPRPRPRPNTFPRP, the “shrunken log2 fold change” value was found to be 0.105. Next, RRIRQRPPRLPRPRPRPCILPRP: -0.458. RRIRFRPPRLPRPRPRPNVPPRP: the “shrunken log2 fold change” value is -0.0369. For RRIRHRPPRLPRPRPRPPYMPRP, the “shrunken log2 fold change” value is -0.539. Regarding RRIRCRPPRLPRPRPRPFDFPRP, the “shrunken log2 fold change” value is -0.342. Turning to RRIRVRPPRLPRPRPRPSWNPRP, the “shrunken log2 fold change” value was -0.371. With RRIRGRPPRLPRPRPRPTSNPRP, the “shrunken log2 fold change” value is 0.659. For RRIRIRPPRLPRPRPRPLVDPRP, the “shrunken log2 fold change” value was determined as 0.126. For the sequence RRIRCRPPRLPRPRPRPLSHPRP, the “shrunken log2 fold change” value is -0.432. For the sequence RRIRMRPPRLPRPRPRPKRVPRP, the “shrunken log2 fold change” value was found to be 0.0291. As for RRIRPRPPRLPRPRPRPCCTPRP, the “shrunken log2 fold change” value is -0.12. For RRIRLRPPRLPRPRPRPDMTPRP, the “shrunken log2 fold change” value was -0.0167.

With RRIRKRPPRLPRPRPRPYELPRP, the “shrunken log2 fold change” value is -0.0181. As for RRIRCRPPRLPRPRPRPVPSPRP, the “shrunken log2 fold change” value is -0.119. As to RRIRKRPPRLPRPRPRPWVIPRP, the “shrunken log2 fold change” value is -0.182. Take RRIRDRPPRLPRPRPRPPMSPRP: the “shrunken log2 fold change” value was 0.137. As for RRIRKRPPRLPRPRPRPNFHPRP, the figure is 0.676; as for RRIRGRPPRLPRPRPRPPNRPRP, 0.427; as for RRIRWRPPRLPRPRPRPMRVPRP, 1.03. RRIRRRPPRLPRPRPRPGMWPRP: the “shrunken log2 fold change” value is 0.59. Turning to RRIRYRPPRLPRPRPRPADEPRP, the “shrunken log2 fold change” value is -0.451.

For RRIRSRPPRLPRPRPRPETFPRP, the “shrunken log2 fold change” value stood at 0.0203.

Regarding RRIRTRPPRLPRPRPRPIPFPRP, the “shrunken log2 fold change” value was -0.325. As for RRIRTRPPRLPRPRPRPQGWPRP, the figure is 0.704; as for RRIRYRPPRLPRPRPRPSNNPRP, -1.42. As for RRIRNRPPRLPRPRPRPSDYPRP, the figure is 0.075; as for RRIRWRPPRLPRPRPRPSWAPRP, 0.152. Regarding RRIRNRPPRLPRPRPRPKPPPRP, the “shrunken log2 fold change” value came out at 0.436.

With RRIRKRPPRLPRPRPRPAWSPRP, the “shrunken log2 fold change” value turned out to be 0.202. As for RRIRSRPPRLPRPRPRPSCIPRP, the “shrunken log2 fold change” value was -0.223.

In the case of RRIRERPPRLPRPRPRPSLVPRP, the “shrunken log2 fold change” value was -0.0847. Take RRIRDRPPRLPRPRPRPGTRPRP: the “shrunken log2 fold change” value was 0.118. RRIRIRPPRLPRPRPRPVDVPRP: the “shrunken log2 fold change” value is -0.675.

RRIRIRPPRLPRPRPRPMNVPRP: the “shrunken log2 fold change” value is -0.122.

In the case of RRIRARPPRLPRPRPRPIVRPRP, the “shrunken log2 fold change” value was -0.146. As for RRIRERPPRLPRPRPRPKVGPRP, the “shrunken log2 fold change” value turned out to be 0.0685.

On to RRIRWRPPRLPRPRPRPNWRPRP, for which the “shrunken log2 fold change” value was found to be 0.184. For the sequence RRIRDRPPRLPRPRPRPLLCPRP, the “shrunken log2 fold change” value is 0.503. Next, RRIRSRPPRLPRPRPRPQQVPRP: 0.0131.

For the origin of these results see the supplement of paper PMC9112550, “Optimization of the antimicrobial peptide Bac7 by deep mutational scanning” (BMC Biology, 2022).
